Laboratory results published in doi:10.1101/2025.03.24.645041 (2025).

B1: MBP-Vac17(H) [budding yeast] / Strep II-Myo2(1150–1567) [budding yeast] (parent complex)
chain 1: MATQALEDITERLLIRSQEAILQLDLWIQRQQRSSICQTTDQESLDKLSQQYNQYMSQLNSLYVRSESVRDKLSKEQQRRLITEDNEHQRIEDLVREFQDITLRLNELA
chain 2: GVNATQINEELYRLLEDTEILNQEITEGLLKGFEVPDAGVAIQLSKRDVVYPARILIIVLSEMWRFGLTKQSESFLAQVLTTIQKVVTQLKGNDLIPSGVFWLANVRELYSFVVFALNSILTEETFKNGMTDEEYKEYVSLVTELKDDFEALSYNIYNIWLKKLQKQLQKKAINAVVISESLPGFSAGETSGFLNKIFANTEEYTMDDILTFFNSIYWCMKSFHIENEVFHAVVTTLLNYVDAICFNELIMKRNFLSWKRGLQLNYNVTRLEEWCKTHGLTDGTECLQHLIQTAKLLQVRKYTIEDIDILRGICYSLTPAQLQKLISQYQVADYESPIPQEILRYVADIVKKEAALSSSGNDSKGHEHSSSIFITPETGPFTDPFSLIKTRKFDQVEAYIPAWLSLPSTKRIVDLVAQ

Variants of: B1
Assay: pull-down; Strep II-Myo2 tail co-expressed with MBP-Vac17(H) and immobilized on Strep-Tactin beads; normalized to Vac17 and Myo2 input levels; parent: 1; read off a plot

Row | ratio to parent | Variant
1 | ~0.59 | chain 2 GVNATQINEELYRLLEDTEILNQEITEGLLKGFEVPDAGVAIQLSKRDVVYPARILIIVLSEMWRFGLTKQSESFLAQVLTTIQKVVTQLKGNDLIPSGVFWLANVRELYSFVVFALNSILTEETFKNGMTDEEYKEYVSLVTELKDDFEALSYNIYNIWLKKLQKQLQKKAINAVVISESLPGFSAGETSGFLNKIFANTEEYTMDDILTFFNSIYWCMKSFHIENEVFHAVVTTLLNYVDAICFNELIMKRNFLSWARGLQLNYNVTRLEEWCKTHGLTDGTECLQHLIQTAKLLQVEKYTIEDIDILRGICYSLTPAQLQKLISQYQVADYESPIPQEILRYVADIVKKEAALSSSGNDSKGHEHSSSIFITPETGPFTDPFSLIKTRKFDQVEAYIPAWLSLPSTKRIVDLVAQ [chain 2 K259A, chain 2 R300E]
2 | ~0.4 | chain 2 GVNATQINEELYRLLEDTEILNQEITEGLLKGFEVPDAGVAIQLSKRDVVYPARILIIVLSEMWRFGLTKQSESFLAQVLTTIQKVVTQLKGNDLIPSGVFWLANVRELYSFVVFALNSILTEETFKNGMTDEEYKEYVSLVTELKDDFEALSYNIYNIWLKKLQKQLQKKAINAVVISESLPGFSAGRTSGFLNKIFANTEEYTMDDILTFFNSIYWCMKSFHIENEVFHAVVTTLLNYVDAICFNELIMKRNFLSWARGLQLNYNVTRLEEWCKTHGLTDGTECLQHLIQTAKLLQARKYTIEDIDILRGICYSLTPAQLQKLISQYQVADYESPIPQEILRYVADIVKKEAALSSSGNDSKGHEHSSSIFITPETGPFTDPFSLIKTRKFDQVEAYIPAWLSLPSTKRIVDLVAQ [chain 2 E189R, chain 2 K259A, chain 2 V299A]
